Bridges are numbered along the chain shown (N, C = ends). Primed or numbered codes have the meaning given here. Side-chain parts run from the residue outwards. [ ]: non-standard residue; d: D form. The star is where a group is joined. Trp(5-OMe) = COc1ccc2[nH]cc(C[C@H](N)C(=O)O)c2c1; Igl = N[C@H](C(=O)O)C1Cc2ccccc2C1; Pen = CC(C)(S)[C@H](N)C(=O)O; DBCO′ = dibenzocyclooctyne; Orn = NCCC[C@H](N)C(=O)O; PEG4′ = not defined here; Pra = C#CC[C@H](N)C(=O)O; Dap = NC[C@H](N)C(=O)O; Acm = CC(=O)NC*

Sequences and labels used below:
B1: P2-65 (peptide)
peptide: H-GDPDTWEVWGRE[Orn]LQGG[Pra]G-NH2
modifications: lactam 4-13
SMILES: C#CC[C@H](NC(=O)CNC(=O)CNC(=O)[C@H](CCC(N)=O)NC(=O)[C@H](CC(C)C)NC(=O)[C@@H]1CCCNC(=O)C[C@H](NC(=O)[C@@H]2CCCN2C(=O)[C@H](CC(=O)O)NC(=O)CN)C(=O)N[C@@H]([C@@H](C)O)C(=O)N[C@@H](Cc2c[nH]c3ccccc23)C(=O)N[C@@H](CCC(=O)O)C(=O)N[C@@H](C(C)C)C(=O)N[C@@H](Cc2c[nH]c3ccccc23)C(=O)NCC(=O)N[C@@H](CCCNC(=N)N)C(=O)N[C@@H](CCC(=O)O)C(=O)N1)C(=O)NCC(N)=O
B2: P2-68 (peptide)
peptide: H-GDPETWEVWGRE[Orn]LQGG[Pra]G-NH2
modifications: lactam 4-13
SMILES: C#CC[C@H](NC(=O)CNC(=O)CNC(=O)[C@H](CCC(N)=O)NC(=O)[C@H](CC(C)C)NC(=O)[C@@H]1CCCNC(=O)CC[C@H](NC(=O)[C@@H]2CCCN2C(=O)[C@H](CC(=O)O)NC(=O)CN)C(=O)N[C@@H]([C@@H](C)O)C(=O)N[C@@H](Cc2c[nH]c3ccccc23)C(=O)N[C@@H](CCC(=O)O)C(=O)N[C@@H](C(C)C)C(=O)N[C@@H](Cc2c[nH]c3ccccc23)C(=O)NCC(=O)N[C@@H](CCCNC(=N)N)C(=O)N[C@@H](CCC(=O)O)C(=O)N1)C(=O)NCC(N)=O
B3: P2-58 (peptide)
peptide: H-GDP[Orn]TWEVWGREDLQGG[Pra]G-NH2
modifications: lactam 4-13
SMILES: C#CC[C@H](NC(=O)CNC(=O)CNC(=O)[C@H](CCC(N)=O)NC(=O)[C@H](CC(C)C)NC(=O)[C@@H]1CC(=O)NCCC[C@H](NC(=O)[C@@H]2CCCN2C(=O)[C@H](CC(=O)O)NC(=O)CN)C(=O)N[C@@H]([C@@H](C)O)C(=O)N[C@@H](Cc2c[nH]c3ccccc23)C(=O)N[C@@H](CCC(=O)O)C(=O)N[C@@H](C(C)C)C(=O)N[C@@H](Cc2c[nH]c3ccccc23)C(=O)NCC(=O)N[C@@H](CCCNC(=N)N)C(=O)N[C@@H](CCC(=O)O)C(=O)N1)C(=O)NCC(N)=O
B4: P1-1 (peptide)
peptide: Ac-SECAPLAPDWLSCILGGK(DBCO′)-NH2
modifications: disulfide 3-13
notes: also called P1 alanine scan, AA position 4
B5: P1-3-4 (peptide)
peptide: Ac-SECFPAAPDWLSCIAGGK(DBCO′)-NH2
modifications: disulfide 3-13
notes: also called alanine scan of flanking residues on P1-3, AA position 15
B6: P1-7 (peptide)
peptide: Ac-SECFPLAPDWASCILGGK(DBCO′)-NH2
modifications: disulfide 3-13
notes: also called P1 alanine scan, AA position 11
B7: P1-2 (peptide)
peptide: Ac-SECFALAPDWLSCILGGK(DBCO′)-NH2
modifications: disulfide 3-13
notes: also called P1 alanine scan, AA position 5
B8: P1-8 (peptide)
peptide: Ac-SECFPLAPDWLACILGGK(DBCO′)-NH2
modifications: disulfide 3-13
notes: also called P1 alanine scan, AA position 12
B9: P1-6 (peptide)
peptide: Ac-SECFPLAPDALSCILGGK(DBCO′)-NH2
modifications: disulfide 3-13
notes: also called P1 alanine scan, AA position 10
B10: P1-5 (peptide)
peptide: Ac-SECFPLAPAWLSCILGGK(DBCO′)-NH2
modifications: disulfide 3-13
notes: also called P1 alanine scan, AA position 9
B11: P1-3-1 (peptide)
peptide: Ac-AECFPAAPDWLSCILGGK(DBCO′)-NH2
modifications: disulfide 3-13
notes: also called alanine scan of flanking residues on P1-3, AA position 1
B12: P1-4 (peptide)
peptide: Ac-SECFPLAADWLSCILGGK(DBCO′)-NH2
modifications: disulfide 3-13
notes: also called P1 alanine scan, AA position 8
B13: 1% P2-55 nanoparticle (other)
peptide: DPXTWEVWGREXLQGGK
modifications: not fully specified; N-terminal acetyl; penicillamine at 3 and 12, disulfide; Lys17(PEG4-DBCO) clicked to azide PLA-PEG nanoparticle at 1%; C-terminal amide
notes: also called P2-55 1% Ligand Density NP
B14: 5% P2-55 nanoparticle (other)
peptide: DPXTWEVWGREXLQGGK
modifications: not fully specified; N-terminal acetyl; penicillamine at 3 and 12, disulfide; Lys17(PEG4-DBCO) clicked to azide PLA-PEG nanoparticle at 5%; C-terminal amide
notes: also called P2-55 5% Ligand Density NP; Pen analog NP
B15: 5% P2-2 nanoparticle (other)
peptide: Ac-DACTWEVWGRECLQGGK-NH2
modifications: disulfide 3-12; not fully specified (residue 17)
notes: also called P2-2 5% Ligand Density NP; alanine analog NP
B16: EGFf-6 (peptide)
peptide: H-LDKYACNC(Acm)VV-NH2
SMILES: CC(=O)NCSC[C@H](NC(=O)[C@H](CC(N)=O)NC(=O)[C@H](CS)NC(=O)[C@H](C)NC(=O)[C@H](Cc1ccc(O)cc1)NC(=O)[C@H](CCCCN)NC(=O)[C@H](CC(=O)O)NC(=O)[C@@H](N)CC(C)C)C(=O)N[C@H](C(=O)N[C@H](C(N)=O)C(C)C)C(C)C
B17: EGFf-7 (peptide)
peptide: H-C(Acm)NCVVGYIGE-NH2
SMILES: CC[C@H](C)[C@H](NC(=O)[C@H](Cc1ccc(O)cc1)NC(=O)CNC(=O)[C@@H](NC(=O)[C@@H](NC(=O)[C@H](CS)NC(=O)[C@H](CC(N)=O)NC(=O)[C@@H](N)CSCNC(C)=O)C(C)C)C(C)C)C(=O)NCC(=O)N[C@@H](CCC(=O)O)C(N)=O

One assay addresses T1, Fc tagged recombinant human EGFR (rhEGFR-Fc, R&D systems, Cat#344-ER-050) (human, UniProt P00533 25-645).
T1 construct: Bought protein; also called apo-EGFR; not shown: Fc tag
Description: SPR. (In general: In SPR one partner is held on a chip, and binding of the other changes the refractive index at the surface.)
Regarding B1, the binding result is “no binding”.
The same measure, in the same setting: next, H-GDPETWEVWGRE[Dap]LQGG[Pra]G-NH2 (lactam 4-13) [P2-69]: “no binding”.
On to B2, for which the binding result is “no binding”.
Still for that read-out and setting: next, H-GDPKTWEVWGREELQGG[Pra]G-NH2 (lactam 4-13) [P2-60]: “no binding”; H-GDP[Dap]TWEVWGREDLQGG[Pra]G-NH2 (lactam 4-13) [P2-59]: “no binding”.
On the same count and under the same terms, then H-GDPDTWEVWGRE[Dap]LQGG[Pra]G-NH2 (lactam 4-13) [P2-66], with “no binding”; and B3, with “no binding”.
On to H-GDPDTWEVWGREKLQGG[Pra]G-NH2 (lactam 4-13) [P2-64], for which the binding result was “no binding”.

The target in a further assay is T1, Fc tagged recombinant human EGFR …. Kind of assay: EGF competition ELISA, free peptide. As for the experimental part: An alanine scan was performed on the amino acids within the cyclic portion of the peptide structure to determine which amino acids were critical for binding. Each amino acid within the peptide was individually replaced with alanine. […] Subsequently, an alanine scan of the flanking amino acids on P₁₋₃ was performed.
In general terms: In an ELISA, binding on a coated surface is turned into a signal by an enzyme label.
As for B4, the “Peptide Relative IC50 (normalized to P1)” value came to 1.9 ratio.
With B5, the “Peptide Relative IC50 (normalized to P1)” value amounted to 3.2 ratio.
Same read-out and setting: then B6, with 3.5 ratio.
The same measure, in the same setting: then B7, with 11.5 ratio; and B8, with 1 ratio; and B9, with 7.1 ratio.
The same measure, in the same setting: then B10, with 4.4 ratio.
Regarding B11, the “Peptide Relative IC50 (normalized to P1)” value amounted to 0.7 ratio.
The same measure, in the same setting: then B12, with 2.7 ratio.

The next assay deals with T2, EGF bound EGFR (rhEGFR-Fc with recombinant human EGF pre-injected in SPR or 50 nM EGF present in ELISA) (human, UniProt P00533 25-645; P01133 971-1023).
T2 construct: Complex of m1 and m5 as target; also called EGFR in the presence of EGF; With EGF; not shown: Fc tag
Kind of assay: P2 competition ELISA, 1% ligand density NP.
For orientation: IC50 means the concentration that gives 50% inhibition. Take B13: the IC50 was found to be 135 µg/mL and the “Rel IC50 (against P2 NP)” value worked out at 1.67 ratio.
For Ac-DACTWEVWGRECLQGGK-NH2 (other, disulfide 3-12; not fully specified (residue 17), also called P2-2 1% Ligand Density NP) [1% P2-2 nanoparticle], in that order: 17 µg/mL and 0.2 ratio.
Taken in the same sequence, the figures for Ac-DPCT[Igl]EV[Trp(5-OMe)]GRECLQGGK([PEG4′-DBCO′])-NH2 (other, disulfide 3-12; not fully specified) [1% P2-102 nanoparticle] were 7.6 µg/mL and 0.09 ratio.

Another assay addresses T2, EGF bound EGFR (rhEGFR-Fc with …). Kind of assay: P2 competition ELISA, 5% ligand density NP.
As to B14, the IC50 worked out at 3.4 µg/mL and the “Rel IC50 (against P2 NP)” value came to 0.79 ratio.
Taken in the same sequence, the figures for B15 were 3 µg/mL and 0.7 ratio.
Taken in the same sequence, the figures for Ac-DPCT[Igl]EV[Trp(5-OMe)]GRECLQGGK([PEG4′-DBCO′])-NH2 (other, disulfide 3-12; not fully specified, also called aromatic analog NP) [5% P2-102 nanoparticle] were 2.6 µg/mL and 0.6 ratio.

The target of a further assay is EGF bound EGFR (rhEGFR-Fc with recombinant human EGF pre-injected in SPR or 50 nM EGF present in ELISA) (human) (UniProt P00533). Kind of assay: P2 competition ELISA, 5% nanoparticle conjugate.
Consider Ac-DACT[Igl]EV[Trp(5-OMe)]GRECLQGGK(DBCO′)-NH2 (disulfide 3-12; not fully specified) [5% P2-2/102 nanoparticle], for which the IC50 came out at 3.7 µg/mL and the Rel. Diff. (against P2 NP) stood at 0.62.
For Ac-DA[Pen]T[Igl]EV[Trp(5-OMe)]GRE[Pen]LQGGK(DBCO′)-NH2 (disulfide 3-12; not fully specified) [5% P2-2/55/102 nanoparticle], in that order: 1.6 µg/mL and 0.27.
Taken in the same sequence, the figures for Ac-DP[Pen]T[Igl]EV[Trp(5-OMe)]GRE[Pen]LQGGK(DBCO′)-NH2 (disulfide 3-12; not fully specified) [5% P2-55/102 nanoparticle] were 2.2 µg/mL and 0.37.

For another assay, the target named is T1, Fc tagged recombinant human EGFR …. Kind of assay: screening ELISA, peptide 100 µM against 0.7 nM biotin-EGF on coated rhEGFR.
With B16, the “% inhibition of EGF” value was below 20%.
Still for that read-out and setting: then H-GYIGERCQYR-NH2 [EGFf-8], with below 20%.
On the same count and under the same terms, next, B17: below 20%; H-NSDSECPLSH-NH2 [EGFf-1]: below 20%.
